Experiment: yeast display, Sf9 membrane polyspecificity reagent, FACS + sequencing; frameworks hold sequencing errors
How it was run: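 Nanobodies from a synthetic yeast display library (Saccharomyces cerevisiae BJ5465), induced 36–48 hours with galactose, were stained 1 hour at 4 °C with 10% biotinylated, detergent-solubilized Sf9 membrane reagent, enriched on streptavidin microbeads, then FACS-sorted. Anti-HA (expression) and streptavidin (reagent binding) fluorescence set low and high (top ~1%) gates. Polyreactivity labels come from the gate of origin. Genes were colony-PCR amplified, MiSeq 2 × 250 sequenced and filtered by CDR length.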

| Sequence | polyreactivity (PSR sort gate) |
| --- | --- |
| QVQLVESGGGLVQAGGSLRLSCAASGFIFVRYGMGWYRQAPGKERELVAAITWNGGSTFYADSVKGRFTISRDNAKNTVYLQMNSLKPEDTAVYYCAAGYKYSYRSIYTHVDYWGQGTQVTVSS | low polyreactivity |
| QVQLVESGGGLVQAGGSLRLSCAASGFIFVSNAMGWYRQAPGKERELVAAISKSGARTSYADSVKGRFTISRDNAKNTVYLQMNSLKPEDTAVYYCAASGSGVGIYYKRGNYWGQGTQVTVSS | high polyreactivity |
| QVQLVESGGGLVQAGGSLRLSCAASGFIFVTNAMGWYRQAPGKERELVAAINWSGGRTYYADSVKGRFTISRDNAKNTVYLQMNSLKPEDTAVYYCAADPYARLGEYGYWGQGTQVTVSS | low polyreactivity |
| QVQLVESGGGLVQAGGSLRLSCAASGFIFVTYAMGWYRHAPGKERELVAAITNSGGTTYYADSVKGRFTISRDNAKNTVYLQMNSLKPEDTAVYYCNKPYGAETAHREFDYWGQGTQVTVSS | low polyreactivity |
| QVQLVESGGGLVQAGGSLRLSCAASGFIFVVYAMGWYRQAPGKERELVAAITNGGITYYADSVKGRFTISRDNAKNTVYLQMHSLKPEDTADYYCNAQYTDYDGYVGYYYWGEGTQVTVSS | low polyreactivity |
| QVQLVESGGGLVQAGGSLRLSCAASGFIFVVYTMGGYRQEPGKVRELVAAITSGGSTYYADSVKGRFTISRDNAKNTVYLQMNSLKPEDTAVYYCNALASRYQAYYYWGQGTQVTVSS | low polyreactivity |
| QVQLVESGGGLVQAGGSLRLSCAASGFIFVWYAMGWYRQAPGKERELVAAISWSGGNTYYADSVKGRFTISRDNAKNTVYLQMNSLKPEDTAVYYCNVVYFDGNPEDYDYWGQGTQVTVSS | high polyreactivity |
| QVQLVESGGGLVQAGGSLRLSCAASGFIFVYNDMGWYRQAPGKERELVAAISTSGGSTYYADSVKGRFTISRDNAKNTVYLQMNSLKPEDTAVYYCAAGPSYYPFFWPDFEYWGQGTQVTVSS | high polyreactivity |
| QVQLVESGGGLVQAGGSLRLSCAASGFIFVYYAMGWYRQAPGKERELVAAISSRGGSTYYADSVKRRFTISRDNAKNTVYLQMNSLKPEDTAVYYCAARPSSRRYGTIMDYWGQGTQVTVSS | high polyreactivity |
| QVQLVESGGGLVQAGGSLRLSCAASGFIFVYYAMGWYRQAPGKERELVATISSSSASTYYADSVKGRFTISRDNAKNTVYLQMNSLKPEDTAVYYCAVLVSRYRYRVLDDSWGQGTQVTVSS | high polyreactivity |
| QVQLVESGGGLVQAGGSLRLSCAASGFIFWEYAMGWYRQAPGKERELVAVISYRGGSTYYADSVKGRFTISRDNAKNTVYLQMNSLKPEDTAVYYCNADTIPDGEDRYDYWGQGTQVTVSS | low polyreactivity |
| QVQLVESGGGLVQAGGSLRLSCAASGFIFWFYAMGWYRQAPGKERELVASISASGGSTNYADSVKGRFTISRDYAKKTVYLQMNSLKPEDTAVYYCAARKRYLRGYWGQGTQVTVSS | high polyreactivity |
| QVQLVESGGGLVQAGGSLRLSCAASGFIFWIYAMGWYRQAPGKEREFVAVITYRGDTSYYADSVKGRFTISRDNAKNTVYLQMNSLKPEDTAVYYCAAYTVQKYGYWGQGTQVTVSS | low polyreactivity |
| QVQLVESGGGLVQAGGSLRLSCAASGFIFWLYALGWYRKAPGKERELVASINWSGGDTYYADSVKGRFTISRDNPKNTVYLQLNSLKPEDTAVYYCNAQVYRYRIGYDYWGQGPQVTVSS | low polyreactivity |
| QVQLVESGGGLVQAGGSLRLSCAASGFIFWRYAMGWYRQAPGKDRELVAAISSTGRTYYADSVKGRFTISRDNAKNTVYLQMNSLKPEDTAVYYCNAAPVYLADPTRKYKADYWGQGTQVTVSS | low polyreactivity |
| QVQLVESGGGLVQAGGSLRLSCAASGFIFWRYAMGWYRQAPGKERELVAAITSGGRTNYADSVKGRFTISRDNAKNTVYLQMNSLKPEDTAVYYCAADRSWSPRAGWYDYWGQGTQVTVSS | high polyreactivity |
| QVQLVESGGGLVQAGGSLRLSCAASGFIFWRYAMGWYRQAPGKERELVATITSSGGTTHYADSVKGRFTISRDNAKNTVYLQMNSLKPEDTAVYYCATRKGVGSLYYSRNYWGQGTQVTVSS | high polyreactivity |
| QVQLVESGGGLVQAGGSLRLSCAASGFIFWRYTMGWYRQAPGKERELVAVISWRGDNTYADSVEGRFTISRDNAKNTVYLQMNSLKPEDTAVYYCGVYRYDYWGQGTQVTVSS | low polyreactivity |
| QVQLVESGGGLVQAGGSLRLSCAASGFIFWSNAMGWYRQAPGKERELVAAINSSGGRTYYADSVKGRFTISRDNAKNTVYLQMNSLKPEDTAVYYCAARLHSPRYRYDYWGQGTQVTVSS | high polyreactivity |
| QVQLVESGGGLVQAGGSLRLSCAASGFIFWTYAMGWYRQAPGKERELVAAITWSGTSTYYADSVKGRFTISRDNAKNTVYLQMNSLKPEDTAVYYCNALYYSRRVDYWGQGTQVTVSS | high polyreactivity |
| QVQLVESGGGLVQAGGSLRLSCAASGFIFWYNAMGWYRPAPGKEREFVAAISSGGSTTYADSVKGRFTISRDNAKNTVYLQMNSLKPEDTAVYYCAAGSYDYDYWGQGTQVTVSS | low polyreactivity |
| QVQLVESGGGLVQAGGSLRLSCAASGFIFWYYAMGWYRPAPGKERELVATITRGGSTYYADSVKGRFTISRDNAKNTVYLQLNSLKPEDTAVYYCNAVRPKIYDYWGQGTQVTLSS | high polyreactivity |

| Sequence | polyreactivity (PSR sort gate) |
| --- | --- |
| QVQLVESGGGLVQAGGSLRLSCAASGFIFWYYAMGWYRQAPGKERELVATITSGGSTTYADSVKGRFTISRDNAKNTVYLQMNSLKPEDTAVYYCAAKGISRYDWGQGTQVTVSS | low polyreactivity |
| QVQLVESGGGLVQAGGSLRLSCAASGFIFYANAMGWYRQAPGKERELVAAITWSGSRTYYADSVKGRFTISRDNAKNTVYLQMNSLKPEDTAVYYCNKDWYVGSFGYPEDYWGQGTQVSVSS | low polyreactivity |
| QVQLVESGGGLVQAGGSLRLSCAASGFIFYAYAMGWYRQAPGKERELVAAISYSGGSTYYADSVKGRFTISRDNAKNTVYLQMNSLKPEDTAVYYCNTVSYGYSSKLYDYWGQGTLVTVSS | high polyreactivity |
| QVQLVESGGGLVQAGGSLRLSCAASGFIFYAYTMGWYRQAPGKERELVAAISRSGGRTYYADSVKGRFTISRDNAKNTVYLQMNSLKPEDTAVYYCAAEYRGVPRVVVDYDYWGQGTQVTVSS | high polyreactivity |
| QVQLVESGGGLVQAGGSLRLSCAASGFIFYDNAMGWYRQAPGKERELVAAIDWSGDSTYYADSVKGRFTISRDNAKNTVYLQMNSLKPEDTAVYYCAADSQDPGDYYLFDYWGQGTQVTVSS | low polyreactivity |
| QVQLVESGGGLVQAGGSLRLSCAASGFIFYDYAMGWYRQAPGKERELVAAIRSSDGGTYYADSEKGPFTISRDNAKNTVYLQMNSLKPEDTAVDYCAAEIRWGWHPYYDYDEYWGQGTLVTVSS | low polyreactivity |
| QVQLVESGGGLVQAGGSLRLSCAASGFIFYDYDMGWYRQAPGKEREFVAAITYSGGSTYYADSVKGRFTISRDNAKNTVYLQMNCLKPEDTAFYYCADVKSRYAEAVDYFYWGQGTHVTVSS | low polyreactivity |
| QVQLVESGGGLVQAGGSLRLSCAASGFIFYHYAMGWYRQAPGKERELVAAISGRGGSTYYADSVKGRFTISRDNAKNTVYLQMNSLKPEDTAVYYCATDYSRTFDYWGQGTQVTVSS | high polyreactivity |
| QVQLVESGGGLVQAGGSLRLSCAASGFIFYKNAMGWYRQAPGKERQLVAAINFSTGRTYYADSVKGRFTISRDNAKNTVYLQMNSLKPEDTAVYYCASKSANPRKYYYWGQGTQVTVSS | high polyreactivity |
| QVQLVESGGGLVQAGGSLRLSCAASGFIFYKYAMGWYRQAPGKERELVAAISKRGGSTYYADSVKGRFTISRDNAKNTVYLQMNSLKPEDNAVYYCATVGGNSGTVRYFASDYWGQGTKVTVSS | high polyreactivity |
| QVQLVESGGGLVQAGGSLRLSCAASGFIFYKYAMGWYRQAPGKERELVAAISRGGTTTYADSVKGRFTISRDNAKNTVYLQMNSLKPEDTAVYYCNKYFRYRYDYWGQGTQVTVSS | high polyreactivity |
| QVQLVESGGGLVQAGGSLRLSCAASGFIFYKYAMGWYRQAPGKERELVAAITRRGGSTYYADSVKGRFTISRDNAKNTVYLQMNSLKPEDTAVYYCAKYIYGYKDSPLGDDYWGQGTQVTVSS | high polyreactivity |
| QVQLVESGGGLVQAGGSLRLSCAASGFIFYKYAMGWYRQAPRKEREFVASISGSGGRTYYADSVKGRFTISRDNAKNTVYLQMNSLKPEDTAVYYCAVDLLRRGFPTVVTTYDYWGQGTQVTVSS | high polyreactivity |
| QVQLVESGGGLVQAGGSLRLSCAASGFIFYLYAMGWYRQAPGKEMELVAAISWGGGTTYYADSVKGRFTISRDNAKNTVYLKMNSLKPEDTAVYYCAAETEYYSYRFDYWGQGTQVTVSS | high polyreactivity |
| QVQLVESGGGLVQAGGSLRLSCAASGFIFYNYAMGWSRQAPGKERELVAAITGGGSTNYADSVKGRFTISRDNAKTTVYLQMNSLKPEDTAVYYCAAEEGPPWSRYDYWGQGTQVTVSS | low polyreactivity |
| QVQLVESGGGLVQAGGSLRLSCAASGFIFYNYAMGWYRQAPGKERELVAAISASGGRTYYADSVKGRFTISRDNAKNTVYLQMHRLKPEDTAVYYCIARVKYKGYDYWGQGTQVTVSS | high polyreactivity |
| QVQLVESGGGLVQAGGSLRLSCAASGFIFYPNAMGWYRQAPGKERELVAAISSSTGSTYYADSVKGRFTISRDNAKNTVYLQMNSLNRVDTAGYYCAADLEYYPIGGDLQEREYWGQGTQVTVSS | low polyreactivity |
| QVQLVESGGGLVQAGGSLRLSCAASGFIFYRDAMGWYRPAPGKERELVAAISSRGVSTYYADSVKGRFTISRDNAKNTVYLLMNSLKPEDTAVYSCARISRYYALYDYWGQGTQVTVSS | high polyreactivity |
| QVQLVESGGGLVQAGGSLRLSCAASGFIFYRNTMGWYRQAPGKEREFVAAIRWRGGSSYYADSVKGRFTISRDNAKNTVYLQMNSLKPEDTAVYYCAADTRPGYSGFEYWGQGTQVTVSS | high polyreactivity |
| QVQLVESGGGLVQAGGSLRLSCAASGFIFYRNTMGWYRQAPGKEREFVAAIRWRGGSTYYADSVKGRFTISRDNAKNTFYLQLNSVKPEDTAVYYCAADTRPGYSGFEYWGQGTQVTVSS | high polyreactivity |
| QVQLVESGGGLVQAGGSLRLSCAASGFIFYRYAMGWSRQAPGKERELVAAISYRGGSTYYADSVKGRFTISRDIAKNTVYLQMNSLKAEDTAFYYCAAPGLYSRLDYWGQGTQVTVSS | high polyreactivity |
